Test [1] addresses T1, PP1γ catalytic domain (residues 7–300)-H6 (mouse, UniProt P63087 7-300).
T1 construct: mouse PP1γ catalytic domain, residues 7-300; no tag cleavage is described; also called PP1 catalytic domain; protein phosphatase 1; source: E. coli T7 Express lysY/Iq, purified (Ni-NTA, SEC)
The test is described as follows: ITC; 25 °C; 50 mM HEPES pH 8.0, 500 mM NaCl, 0.5 mM TCEP; 12 x 3 μl injections; peptide or pORF38-NLT titrated into PP1γ catalytic domain; one-site binding model; syringe and cell contents in Table S1. Conditions: both partners purified. (In general: Isothermal titration calorimetry measures the heat released or taken up as one component is titrated into another.)

Test [2] concerns the target T1, PP1γ catalytic domain (residues …). The test is described as follows: fluorescence polarisation; competition: serial dilution of competitor added to a pre-formed complex of 2 nM FITC-GADD34 peptide and 250 nM PP1γ catalytic domain (final); 50 mM HEPES pH 8.0, 500 mM NaCl, 0.05% TWEEN-20; 27 °C. As to conditions: both partners purified. Background: Polarisation of emitted light reports the rotation of a fluorescent probe.

Test [3] shares this target. In words: fluorescence polarisation; direct titration of PP1γ catalytic domain against FITC-GADD34 peptide in the buffer optimised for pUL21 (Tris pH 8.5 in place of HEPES pH 8). As to conditions: both partners purified.
The target is the same in test [4]. The test is described as follows: fluorescence polarisation; direct titration: 2 nM FITC-GADD34 peptide with a serial dilution of PP1γ catalytic domain; 50 mM HEPES pH 8.0, 500 mM NaCl, 0.05% TWEEN-20; 27 °C; one-site binding model. As to conditions: both partners purified.
Test [5] shares this target. The test is described as follows: fluorescence polarisation; competition: increasing pUL21 added to a pre-formed complex of 2 nM FITC-GADD34 peptide and 250 nM PP1γ catalytic domain; Tris pH 8.5 in place of HEPES pH 8. As to conditions: both partners purified.
The target in test [6] is T2, PP1γ catalytic domain : GADD34 peptide pre-formed complex (Mus musculus, UniProt P63087).
T2 construct: mouse PP1γ catalytic domain (residues 7–300)-H6; His6 (C); made in house; host or cells: E. coli T7 Express lysY/Iq (PP1γ); tracer peptide synthesised by GenScript
T2 sequence (P63087 7-300, one chain of several): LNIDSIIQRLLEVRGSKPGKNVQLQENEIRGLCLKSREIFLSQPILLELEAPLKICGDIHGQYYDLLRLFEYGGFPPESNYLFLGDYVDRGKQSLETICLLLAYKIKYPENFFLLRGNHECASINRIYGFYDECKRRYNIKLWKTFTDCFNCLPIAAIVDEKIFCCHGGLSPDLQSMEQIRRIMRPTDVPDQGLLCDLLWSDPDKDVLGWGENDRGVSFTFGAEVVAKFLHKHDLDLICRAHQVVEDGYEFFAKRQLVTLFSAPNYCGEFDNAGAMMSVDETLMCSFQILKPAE
The test is described as follows: Competition fluorescence anisotropy in Tris pH 8.5 buffer. The format is binding. As to conditions: 2 nM fluorescent GADD34 peptide + 250 nM PP1γ. As to the method:
Similar competition fluorescence anisotropy experiments with purified full-length pUL21 (Fig. 5E) were performed in a buffer optimized to enhance solubility of the protein (Tris pH 8.5 in place of HEPES pH 8). […] To test whether optimization of the TROPPO sequence to better match a canonical RVxF motif could enhance binding, we generated, expressed and purified a pUL21-H6 mutant where residues A237 and V239 had been substituted for valine and phenylalanine, respectively (pUL21-RVxF, Fig. 5E).
Bacterial expression plasmids encoding the mouse PP1γ catalytic domain (residues 7–300)-H6 and pUL21-H6, and mammalian expression vectors encoding pUL21(FV242AA)-GFP, pORF38-GFP and pORF38(FV255AA)-GFP, were described previously ([23]). We note that the mouse and human PP1γ catalytic domains share 100% amino acid identity. pORF38-NLT-H6 was generated by sub-cloning residues 1 to 263 of ORF38 into the vector pOPTnH ([52]). pUL21-RVxF-H6 was generated by inserting the mutations A237V and V239F into pUL21-H6 by QuikChange site-directed mutagenesis. Human PP1α was cloned from HeLa cell cDNA into a vector derived from pF5K (Promega) with an N-terminal Myc epitope tag via restriction-based cloning, and point mutations were introduced into Myc-PP1α by QuikChange mutagenesis. […]
Proteins were expressed using E. coli T7 Express lysY/I^q cells (New England Biolabs) grown in 2 × TY medium at 37 °C to OD600 0.8 to 1.2 before cooling to 22 °C and induction of protein expression using 0.4 mM IPTG. […] Fractions were analysed by SDS-PAGE and those containing the desired protein were pooled, concentrated using centrifugal concentrators (Millipore) and stored at 4 °C (short-term) or snap-frozen in liquid nitrogen for long-term storage at −70 °C.
Fluorescence anisotropy was measured using a SpectraMax i3 microplate reader (Molecular Devices) with wavelengths 485 ± 20 nm (excitation) and 535 ± 25 nm (emission). […]

Substitutions are numbered along the chain they refer to. Names and notes keep the numbering of the source. “Also recorded” adds a separate entry of the source. Primed or numbered codes have the meaning given here. Where no end group is shown, it is not given here. FITC′ = fluorescein isothiocyanate; Ahx = NCCCCCC(=O)O

T1 sequence (P63087 7-300): as the sequence (P63087 7-300, one chain of several) above

B1: pORF38-NLT-H6 (domain or fragment)
chain: MEFPYHSTVSYNGVTFYFNERATRAYFICGGCLISIPRKHGGEIAKFGHVVRGVGPGDRSVASYVRSELNRTGKTWAVSSNNNCVFLDRVALLAAGSGAVDRDLCGTFDVEVEDPTLADYLVSLPVTHLTLVAGVDVTRENKLKLFPTPTAINTTNGFMYVPNEASFSLVYMRMLELPESLQELVSGLFDGTPEIRDALNGSNDDEKTSIIVSRRAADVVTEDVKADDVPISGEPYSEKQPRRRKKSDHITLSNFVQIRTIPR
notes: VZV pORF38 residues 1-263: N-terminal domain plus linker up to the end of the TROPPO motif (NLT region); Sub-cloned into the vector pOPTnH; also called pOPF38-NLT; source: E. coli T7 Express lysY/Iq, purified (Ni-NTA, SEC); not shown: His6, C-terminal, kept
As a reminder, the Kd is the equilibrium constant for the complex coming apart. Read a high Kd as weaker binding. As a reminder, the stoichiometry N is a count of units in the complex or per binding partner. A word on the IC50: it is the concentration needed to halve the response being measured. High values mean a need for much substance, low ones inhibition by little substance. With B1, in test [1], the Kd turned out to be 497 nM and the “stoichiometry N” value was 1. For the same molecule, in test [2], the IC50 worked out at 417 nM.

B2: GADD34 RVxF+ϕϕ[xF] peptide (residues 552–568), FITC-labelled (peptide)
peptide: {FITC′-Ahx}-KARKVRFSEKVTVHFLA
notes: GADD34 (PP1 regulatory subunit 15A), residues 552-568, RVxF and ϕϕ[xF] motifs; also called fluorescent GADD34 peptide; GADD34 peptide; source: synthetic peptide (GenScript, >95% purity)
For B2, the Kd in test [3] amounted to 55 nM; in test [4], 144 nM.

B3: pUL21-RVxF-H6 (natural protein)
chain: MELSYATTMHYRDVVFYVTTDRNRAYFVCGGCVYSVGRPCASQPGEIAKFGLVVRGTGPDDRVVANYVRSELRQRGLQDVRPIGEDEVFLDSVCLLNPNVSSELDVINTNDVEVLDECLAEYCTSLRTSPGVLISGLRVRAQDRIIELFEHPTIVNVSSHFVYTPSPYVFALAQAHLPRLPSSLEALVSGLFDGIPAPRQPLDAHNPRTDVVITGRRAPRPIAGSGAGSGGAGAKRVTFSEFVQVKHIDRVGPAGVSPAPPPNNTDSSSLVPGAQDSAPPGPTLRELWWVFYAADRALEEPRADSGLTREEVRAVRGFREQAWKLFGSAGAPRAFIGAALGLSPLQKLAVYYYIIHRERRLSPFPALVRLVGRYTQRHGLYVPRPDDPVLADAINGLFRDALAAGTTAEQLLMFDLLPPKDVPVGSDVQADSTALLRFIESQRLAVPGGVISPEHVAYLGAFLSVLYAGRGRMSAATHTARLTGVTSLVLAVGDVDRLSAFDRGAAGAASRTRAAGYLDVLLTVRLARSQHGQSV
notes: methods, results and legend print V239F; also called pUL21 A237V + V239F (RVxF) mutant; source: E. coli T7 Express lysY/Iq, purified (Ni-NTA, SEC); not shown: His6, C-terminal, kept
Consider B3, for which, in test [5], the IC50 was found to be 337 nM.

B4: Full-length pUL21: purified full-length HSV-1 pUL21 (protein)
chain: B3 chain with V237A, F239V
modifications: left off: His6, C-terminal, kept
notes: purified full-length HSV-1 pUL21
Turning to B4, the “Competition with GADD34 peptide for PP1 binding” value in test [6] was “unable to out-compete GADD34 for binding to PP1”; in test [6] (listed as wild-type pUL21) it was “cannot displace a GADD34 RVxF- and ϕϕ[xF]-containing peptide from PP1”.

B5: pUL21-RVxF: pUL21-H6 with mutations A237V and V239F (protein)
chain: B3 chain
modifications: left off: His6, C-terminal, kept
notes: pUL21-H6 with mutations A237V and V239F
Consider B5, for which the “Competition with GADD34 peptide for PP1 binding” value in test [6] is given as “competes with the GADD34 peptide for binding to the PP1 hydrophobic groove; also recorded: the ability to compete with the GADD34 peptide for PP1 binding”.

These data come from publication PMC12723162, “Alphaherpesvirus pUL21 homologs use non-canonical sequences to compete with cellular adaptors for protein phosphatase 1 binding” (The Journal of Biological Chemistry, 2025).
